From patent US20210063414A1, “METHODS FOR PREVENTING AND/OR TREATING BONE LOSS CONDITIONS BY MODULATING IRISIN” (Dana-Farber Cancer Institute, Inc., priority 2018, published 2021)

Molecular target: T1, MLO-Y4 cell surface proteins (Mus musculus, UniProt Q9Z2I9)
T1 construct: endogenous in cells; host or cells: MLO-Y4
T1 sequence (Q9Z2I9 54-463): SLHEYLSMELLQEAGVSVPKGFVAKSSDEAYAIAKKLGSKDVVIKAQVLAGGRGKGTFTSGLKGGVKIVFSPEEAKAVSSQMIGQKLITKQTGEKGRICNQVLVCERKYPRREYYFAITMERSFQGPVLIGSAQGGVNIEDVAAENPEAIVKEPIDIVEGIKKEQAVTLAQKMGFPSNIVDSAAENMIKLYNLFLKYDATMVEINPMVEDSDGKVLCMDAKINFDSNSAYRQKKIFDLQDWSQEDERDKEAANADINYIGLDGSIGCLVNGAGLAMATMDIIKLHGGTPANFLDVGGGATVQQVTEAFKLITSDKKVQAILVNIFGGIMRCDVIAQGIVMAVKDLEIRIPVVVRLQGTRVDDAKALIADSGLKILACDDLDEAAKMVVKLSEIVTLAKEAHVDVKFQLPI
Test: Crosslinking/co-immunoprecipitation/mass spectrometry (TMT quantitative proteomics) to identify irisin receptors
Format: binding
Conditions: co-precipitated protein Sucla2 (SUCB1_MOUSE)
Outline: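 Mouse MLO-Y4 cells were switched to serum-free FreeStyle medium for 4 h, chilled, then exposed to 10 nM His-tagged irisin (or adipsin as control) for 20 min. Cells were crosslinked with 1.5 mM DTSSP (30 min, ice), and bound proteins were pulled down on Ni-NTA and eluted with 250 mM imidazole. Eluates were separated by SDS-PAGE, trypsin-digested in gel, TMT 6-plex labelled and quantified by MS3-based LC-MS/MS on an Orbitrap Fusion Lumos.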

TMT signal-to-noise ratio: 50.8753
Substance: adipsin
